Experimental data reported in US20150183871A1 (AbbVie / Abbott, published 2015).
Residue numbers refer to the chain shown, from its start. Blank lines part the entries; values can stand above or below the binder they belong to.

How the values were obtained:
[1] = target: T1, recombinant purified human RGM A (human, UniProt Q96B86 48-424, limits assumed); assay: direct ELISA, plate coated with hRGM A at 2 µg/ml, biotinylated antibody in 1:5 dilution steps, streptavidin-HRP, OD 450 nm
T1 construct: Bought recombinant protein (R&D Systems); also called hRGM A; hRGMA
T1 sequence: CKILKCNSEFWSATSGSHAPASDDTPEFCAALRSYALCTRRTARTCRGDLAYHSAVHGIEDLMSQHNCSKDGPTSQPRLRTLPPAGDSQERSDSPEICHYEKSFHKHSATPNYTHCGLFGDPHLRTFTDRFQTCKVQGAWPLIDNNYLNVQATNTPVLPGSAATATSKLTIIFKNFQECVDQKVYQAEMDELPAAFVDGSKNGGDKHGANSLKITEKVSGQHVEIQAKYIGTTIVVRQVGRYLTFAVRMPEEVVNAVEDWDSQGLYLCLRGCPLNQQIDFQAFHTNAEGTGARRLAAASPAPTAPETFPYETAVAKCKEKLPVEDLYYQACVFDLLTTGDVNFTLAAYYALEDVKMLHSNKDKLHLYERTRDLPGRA
Method: (i) Direct binding ELISA plates were coated with hRGM A (R&D) at a concentration of 2 μg/ml in Carbonate buffer. The wells were then blocked with 2% Blocking solution (Bio-Rad) for 1 hour at room temperature. Biotinylated antibodies were serially diluted with a 1:5 dilution factor in 0.1% BSNPBS down the plate and incubated for 1 hour at room temperature. The detection reagent was a 1:10,000 dilution of streptavidin-HRP in 0.1% BSNPBS. Detection was done with a TMB reagent, which was stopped with 2N H₂SO₄ and OD was read at 450 nm.
(§1) FAGS was carried out as described in section (ii).

[2] = target: T1, recombinant purified human RGM A; assay: SPR (Biacore 3000), antibody captured by anti-human IgG Fc, hRGMA in solution, 25 °C
Method: The BIACORE assay (Biacore, Inc, Piscataway, N.J.) determines the affinity of antibodies with kinetic measurements of on-, off-rate constants. Binding of antibodies to recombinant purified human RGMA was determined by surface plasmon resonance-based measurements with a Biacore® 3000 instrument (Biacore® AB, Uppsala, Sweden) using running HBS-EP (10 mM HEPES [pH 7.4], 150 mM NaCl, 3 mM EDTA, and 0.005% surfactant P20) at 25° C. All chemicals were obtained from Biacore® AB (Uppsala, Sweden). Approximately 5000 RU of goat anti-human IgG, (Fey), fragment specific polyclonal antibody (Pierce Biotechnology Inc, Rockford, Ill.) diluted in 10 mM sodium acetate (pH 4.5) was directly immobilized across a CM5 research grade biosensor chip using a standard amine coupling kit according to manufacturers instructions and procedures at 25 μg/ml. Unreacted moieties on the biosensor surface were blocked with ethanolamine. Modified carboxymethyl dextran surface in flowcell 2 and 4 was used as a reaction surface. Unmodified carboxymethyl dextran without goat anti-human IgG in flow cell 1 and 3 was used as the reference surface. Purified antibodies were diluted in HEPES-buffered saline for capture across goat anti-humanIgG specific reaction surfaces. Human antibodies to be captured as a ligand (25 μg/ml) were injected over reaction matrices at a flow rate of 5 μl/min. The association and dissociation rate constants, kₒₙ (unit M⁻¹s⁻¹) and koff (unit s⁻¹) were determined under a continuous flow rate of 25 μl/min. Rate constants were derived by making kinetic binding measurements at […] different antigen concentrations ranging from 0.39-50 nM. For kinetic analysis, rate equations derived from the 1:1 Langmuir binding model were fitted simultaneously to association and dissociation phases of all eight injections (using global fit analysis) with the use of Biaevaluation 4.0.1 software. The equilibrium dissociation constant (unit M) of the reaction between humanized antibodies and recombinant purified human RGMA was then calculated from the kinetic rate constants by the following formula: KD=koff/kₒₙ.

[3] = target: T1, recombinant purified human RGM A; assay: competition ELISA on coated hRGMA; competitor biotinylated chimeric 5F9
Method: ELISA plates (Costar 3369) were coated overnight at 4° c. with 50 μl/well of 0.25 μg/ml hRGMA in 0.2 M sodium carbonate-bicarbonate buffer, pH 9.4, washed with Wash Buffer (PBS containing 0.1% Tween 20), and blocked for 1 hr at room temperature with 200 μl/well of 2% nonfat dry milk in PBS. After washing with Wash Buffer, a mixture of a biotinylated chimeric 5F9 (0.1 IJg/ml final concentration) and unlabelled competitor test antibody starting at 50 IJg/ml final concentration and serially diluted 5-fold) in 50 μl/well of ELISA buffer was added in duplicate. After incubating the plates for 1 hr at room temperature, and washing with Wash Buffer, bound antibodies were detected using 100 μl/well of 1:10,000 dilution of HRP-conjugated streptavidin (Fitzgerald) in ELISA buffer. After incubating for 1 hr at room temperature, and washing with Wash Buffer, color development was performed by adding 100 μl/well of TMB Buffer (Zymed). After incubating for 15 min at room temperature, color development was stopped by adding 50 μl/well of 1 N hydrochloric acid. Absorbance was read at 490 nm.

recombinant rat RGM A = target: T2, recombinant rat RGM A (rat); assay: direct ELISA on rRatRGMA
T2 construct: also called rRatRGMA
T2 chain: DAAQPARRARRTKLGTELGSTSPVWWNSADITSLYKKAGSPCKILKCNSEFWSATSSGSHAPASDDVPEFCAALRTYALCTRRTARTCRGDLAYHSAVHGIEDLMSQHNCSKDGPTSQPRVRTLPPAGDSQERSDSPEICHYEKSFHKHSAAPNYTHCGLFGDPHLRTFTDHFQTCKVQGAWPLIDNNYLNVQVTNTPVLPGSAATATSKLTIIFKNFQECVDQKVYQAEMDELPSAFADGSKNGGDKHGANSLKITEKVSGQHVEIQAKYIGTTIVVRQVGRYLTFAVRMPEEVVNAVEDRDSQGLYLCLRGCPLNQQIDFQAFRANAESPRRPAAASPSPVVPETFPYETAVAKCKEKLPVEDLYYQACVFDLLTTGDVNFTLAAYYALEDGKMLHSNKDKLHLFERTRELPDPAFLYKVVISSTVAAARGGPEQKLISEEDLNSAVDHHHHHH

[4] = target: T3, fc-coupled human RGM A light chain, fragment 0 (47-168) (human); assay: direct ELISA on hRGMA 47-168/HuIgGFc
T3 construct: also called hRGM A light chain - fc; hRGMA 47-168/HuIgGFc

[5] = target: T4, rat RGM A overexpressed on cells (BAF3 cells) (rat); assay: FACS on BAF3-ratRGMA stable cell line, anti-rat IgG PE
T4 construct: also called BAF3 cells overexpressing ratRGM A
T4 chain: T2 chain
Method: (ii) FACS analysis. Stable transfectants of HEK293 cells overexpressing hRGM A or BAF3 cells overexpressing ratRGM A were subjected to staining with unlabelled 5F9 or 8D1 MABs for more than 15 minutes at 4° in 0.1% BSNPBS buffer. Detection was carried out with a mouse anti-rat IgG PE antibody.
as §1

[6] = target: T5, fc-coupled full length human RGM A (47-422) (human); assay: competition ELISA: fc-conjugated full length hRGM A (0.5 µg/ml) binding to coated BMP-2
T5 construct: the legends call the protein fc-coupled full length hRGM A fragment (47-422, counted on hRGM A); also called full length fc-conjugated hRGM A; Human RGM A-fc
Method: After the incubation, unbound BMP-2 was removed in 3 separate wash steps with PBS containing 0.02% Tween 20. Blocking of the BMP-2 coated plates was done by adding 2001-JI per well of a 3% Bovine serum albumin (BSA), PBS, Tween 20(0.02%) blocking solution. After incubation for 1 h at 37° C., the blocking solution was removed and RGM A fragments or full length protein, conjugated with a human fc tag, with or without antibody, was added. In some experiments antibodies were preincubated with the fc-conjugated hRGM A proteins for 1 h at room temperature. The BMP-2 coated plates were incubated with hRGM A with or without antibodies for 1 hat 37° C. After 3 wash steps with PBS-Tween 20 (0.02%), plates were incubated with a Biotin-labeled anti-human fc antibody (1 mg/ml, diluted 1:200 in PBS containing 0.6% BSA, 0.02% Tween 20), Jackson ImmunoResearch catalog no: 709-065-149, for 1 h at 37° C. Unbound antibody was removed by 3 wash steps with PBS-Tween 20 (0.02%). […] Unbound Peroxidase-complex was removed in 3 subsequent wash steps (PBS-Tween 20 (0.02%) before adding the Peroxidase substrate (Immuno Pure TMB, Pierce#34021). The substrate reaction was stopped 1-30 min after its addition to the wells by 2.5 M H2SO4. Plates were analysed (OD determination) at a wave length of 450 nm using an Anthos photometer. […]

T5 sequence (chain, as listed by the source): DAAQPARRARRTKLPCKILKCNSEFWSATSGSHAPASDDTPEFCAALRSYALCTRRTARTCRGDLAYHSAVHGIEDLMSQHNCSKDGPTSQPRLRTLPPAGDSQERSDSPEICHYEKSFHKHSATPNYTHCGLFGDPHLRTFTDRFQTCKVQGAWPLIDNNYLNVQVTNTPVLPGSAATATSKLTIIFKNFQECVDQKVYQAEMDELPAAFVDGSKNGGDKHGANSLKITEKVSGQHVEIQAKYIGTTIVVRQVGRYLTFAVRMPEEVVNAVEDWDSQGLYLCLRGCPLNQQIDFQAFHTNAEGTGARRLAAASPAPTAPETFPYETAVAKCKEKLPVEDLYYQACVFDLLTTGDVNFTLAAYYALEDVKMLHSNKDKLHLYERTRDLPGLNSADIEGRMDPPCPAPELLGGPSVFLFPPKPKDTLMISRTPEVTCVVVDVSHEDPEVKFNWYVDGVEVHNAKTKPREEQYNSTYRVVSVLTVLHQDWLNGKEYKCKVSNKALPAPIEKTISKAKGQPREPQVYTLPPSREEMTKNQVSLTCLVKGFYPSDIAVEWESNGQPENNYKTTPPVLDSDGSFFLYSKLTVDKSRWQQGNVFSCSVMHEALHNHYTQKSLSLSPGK
T3 sequence (chain, as listed by the source): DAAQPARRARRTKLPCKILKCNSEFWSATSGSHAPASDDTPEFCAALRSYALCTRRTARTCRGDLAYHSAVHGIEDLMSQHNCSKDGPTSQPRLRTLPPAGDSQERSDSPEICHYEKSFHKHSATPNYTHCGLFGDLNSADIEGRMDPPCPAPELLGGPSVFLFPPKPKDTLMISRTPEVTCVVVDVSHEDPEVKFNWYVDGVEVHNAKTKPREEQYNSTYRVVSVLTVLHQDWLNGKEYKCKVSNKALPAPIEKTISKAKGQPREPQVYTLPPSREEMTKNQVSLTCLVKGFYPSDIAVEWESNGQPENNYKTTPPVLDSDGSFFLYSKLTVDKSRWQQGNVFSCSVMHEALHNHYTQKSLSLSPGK

B2: chimeric 5F9 (antibody, V domains shown)
VH: EVQLVESGGGLVQPGSSLKLSCVASGFTFSNYGMNWIRQAPKKGLEWIGMIYYDSSEKHYADSVKGRFTISRDNSKNTLYLEMNSLRSEDTAIYYCAKGTTPDYWGQGVMVTVSS
VL: DVVLTQTPVSLSVTLGDQASMSCRSSQSLEYSDGYTFLEWFLQKPGQSPQLLIYEVSNRFSGVPDRFIGSGSGTDFTLKISRVEPEDLGVYYCFQATHDPLTFGSGTKLEIKR
notes: also called chimeric human-rat 5F9; biotinylated chimeric 5F9
Kd [2]: 3.09 nM | koff [2]: 0.00236 s⁻¹ | kon [2]: 765000 M⁻¹ s⁻¹

B4: humanized antibody h5F9.24 (antibody, V domains shown)
VH: B2 VH with S16G, K19R, V23A, K42G, E82Q, S88A, I93V, V109T
VL: DVVLTQSPLSLPVTLGQPASISCRSSQSLEYSDGYTFLEWFQQRPGQSPRRLIYEVSNRFSGVPDRFSGSGSGTDFTLKISRVEAEDVGVYYCFQATHDPLTFGQGTKLEIKR
IC50 [3]: 1.32 µg/mL

B5: humanized antibody h5F9.23 (antibody, V domains shown)
VH: B2 VH with S16G, K19R, V23A, K42G, E82Q, S88A, I93V, V109T
VL: B4 VL with R51L
IC50 [3]: 0.55 µg/mL | Kd [2]: 4.37 nM | koff [2]: 0.00221 s⁻¹ | kon [2]: 507000 M⁻¹ s⁻¹

B6: humanized antibody h5F9.21 (antibody, V domains shown)
VH: B2 VH with L11V, S16R, K19R, V23A, K42G, E82Q, S88A, I93V, V109T
VL: B4 VL with Q42L, R44K, R50Q, R51L
IC50 [3]: 0.6 µg/mL | Kd [2]: 7.59 nM | koff [2]: 0.00269 s⁻¹ | kon [2]: 355000 M⁻¹ s⁻¹

Now from value to binder:

EC50 (read off the curve) [1]: ~0.08 µg/mL
B1: rat anti-human RGM A monoclonal antibody 5F9 (antibody, V domains shown)
VH: B2 VH
VL: B2 VL
notes: Rat hybridoma antibody; also called ML69-5F9; MAB 5F9

IC50 [3]: 0.66 µg/mL | Kd [2]: 5.78 nM | koff [2]: 0.00329 s⁻¹ | kon [2]: 570000 M⁻¹ s⁻¹
B3: humanized antibody h5F9.25 (antibody, V domains shown)
VH: B2 VH with S16G, K19R, V23A, K42G, E82Q, S88A, I93V, V109T
VL: B4 VL with Q42L, R44K, R50Q, R51L

binding result (recombinant rat RGM A): no binding | binding result [4]: binds | binding result [5]: no binding | binding result [6]: binds | EC50 (read off the curve) [1]: ~0.2 µg/mL
B7: rat anti-human RGM A monoclonal antibody 8D1 (antibody, V domains shown)
VH: EVQLQQSGPELVKPGTSVKMSCKTSGYTFTSYVMHWVKQKPGQGLEWIGYIIPYNDNTKYNEKFKGKATLTSDKSSSTAYMELSSLTSEDSAVYYCARRNEYYGSSFFDYWGQGTTLTVSS
VL: DIQMTQSPASLSASLEEIVTITCQASQDIDNYLAWYHQKPGKSPRLLIYGATNLADGVPSRFSGSRSGTQFSLKINRLQIEDLGIYYCLQGYIPPRTFGGGTKLELKR
notes: Rat hybridoma antibody; also called ML68-8D1; MAB 8D1
